# Measurements from the supplement of paper PMC9112550, “Optimization of the antimicrobial peptide Bac7 by deep mutational scanning” (BMC Biology, 2022).
# Test system: Escherichia coli TOP10
# Assay: shrunken log2 fold change of peptide-encoding DNA abundance (4.5 h post-induction vs induction); higher = less antimicrobial activity (less host growth inhibition)
# Conditions: time post-induction: 4.5 h; library: site-saturation at positions 5, 18, 19, 20
# 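Note: peptides expressed intracellularly from a pBAD plasmid library in pooled LB shake-flask culture, induced with 0.3% L-arabinose, DNA abundance read by NGS, three biological replicates, DESeq2 with apeglm shrinkage.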
row,Sequence,shrunken log2 fold change
1,RRIRLRPPRLPRPRPRPETPPRP,0.178
2,RRIRDRPPRLPRPRPRPILRPRP,-0.0119
3,RRIRVRPPRLPRPRPRPHWDPRP,-0.473
4,RRIRKRPPRLPRPRPRPEGWPRP,1.46
5,RRIRCRPPRLPRPRPRPAFLPRP,-0.214
6,RRIRCRPPRLPRPRPRPFSMPRP,-0.107
7,RRIRWRPPRLPRPRPRPYDDPRP,-0.321
8,RRIRQRPPRLPRPRPRPSMIPRP,-0.603
9,RRIRFRPPRLPRPRPRPGGIPRP,-0.0183
10,RRIRDRPPRLPRPRPRPQKRPRP,-0.00561
11,RRIRARPPRLPRPRPRPSSAPRP,1.29
12,RRIRARPPRLPRPRPRPPDFPRP,0.708
13,RRIRWRPPRLPRPRPRPTMIPRP,-0.0926
14,RRIRIRPPRLPRPRPRPKWAPRP,-0.105
15,RRIRMRPPRLPRPRPRPEKRPRP,0.0458
16,RRIRRRPPRLPRPRPRPVTEPRP,0.285
17,RRIRARPPRLPRPRPRPFINPRP,-0.356
18,RRIRIRPPRLPRPRPRPWSDPRP,-0.0344
19,RRIRFRPPRLPRPRPRPRKAPRP,0.182
20,RRIRKRPPRLPRPRPRPDVNPRP,0.139
21,RRIRERPPRLPRPRPRPMWCPRP,0.0762
22,RRIRFRPPRLPRPRPRPSHSPRP,-0.171
23,RRIRPRPPRLPRPRPRPRYWPRP,0.0515
24,RRIRARPPRLPRPRPRPTNLPRP,0.0653
25,RRIRPRPPRLPRPRPRPMRVPRP,0.998

row,Sequence,shrunken log2 fold change
1,RRIRWRPPRLPRPRPRPQRPPRP,-0.00892
2,RRIRSRPPRLPRPRPRPKCLPRP,0.0157
3,RRIRFRPPRLPRPRPRPLKAPRP,0.693
4,RRIRTRPPRLPRPRPRPALKPRP,0.206
5,RRIRNRPPRLPRPRPRPMTGPRP,-0.149
6,RRIRQRPPRLPRPRPRPWLFPRP,0.0523
7,RRIRPRPPRLPRPRPRPHMTPRP,-0.47
8,RRIRFRPPRLPRPRPRPDCEPRP,0.175
9,RRIRCRPPRLPRPRPRPNVVPRP,0.0385
10,RRIRTRPPRLPRPRPRPENFPRP,-0.0131
11,RRIRYRPPRLPRPRPRPADDPRP,-0.0179
12,RRIRHRPPRLPRPRPRPLDVPRP,0.0138
13,RRIRQRPPRLPRPRPRPGKCPRP,0.0125
14,RRIRGRPPRLPRPRPRPRIRPRP,0.211
15,RRIRQRPPRLPRPRPRPWLEPRP,0.0751
16,RRIRKRPPRLPRPRPRPEYWPRP,-0.0125
17,RRIRKRPPRLPRPRPRPEYHPRP,-0.0122
18,RRIRGRPPRLPRPRPRPHIPPRP,-0.101
19,RRIRPRPPRLPRPRPRPSGLPRP,-0.199
20,RRIRQRPPRLPRPRPRPRYKPRP,-0.278
21,RRIRIRPPRLPRPRPRPRWQPRP,0.128
22,RRIRFRPPRLPRPRPRPVADPRP,-0.00475
23,RRIRNRPPRLPRPRPRPDGCPRP,0.136
24,RRIRRRPPRLPRPRPRPNMTPRP,-0.136
25,RRIRRRPPRLPRPRPRPIRFPRP,0.0747

row,Sequence,shrunken log2 fold change
1,RRIRYRPPRLPRPRPRPIPMPRP,-0.807
2,RRIRSRPPRLPRPRPRPHGGPRP,0.103
3,RRIRHRPPRLPRPRPRPWTAPRP,-0.0875
4,RRIRERPPRLPRPRPRPKDEPRP,-0.379
5,RRIRHRPPRLPRPRPRPCIEPRP,-0.00547
6,RRIRMRPPRLPRPRPRPKPKPRP,0.476
7,RRIRDRPPRLPRPRPRPACKPRP,0.00774
8,RRIRDRPPRLPRPRPRPVFLPRP,-0.208
9,RRIRIRPPRLPRPRPRPEKHPRP,-0.106
10,RRIRGRPPRLPRPRPRPFSCPRP,-0.262
11,RRIRPRPPRLPRPRPRPHEHPRP,0.0125
12,RRIRCRPPRLPRPRPRPEKVPRP,0.0187
13,RRIRLRPPRLPRPRPRPARRPRP,0.348
14,RRIRARPPRLPRPRPRPWKTPRP,-0.0874
15,RRIRDRPPRLPRPRPRPMNIPRP,-0.0931
16,RRIRFRPPRLPRPRPRPAVVPRP,-0.231
17,RRIRSRPPRLPRPRPRPVNLPRP,-0.0294
18,RRIRPRPPRLPRPRPRPHRMPRP,-0.465
19,RRIRNRPPRLPRPRPRPYAVPRP,-0.0739
20,RRIRDRPPRLPRPRPRPMHRPRP,-0.0439
21,RRIRIRPPRLPRPRPRPAYPPRP,-0.829
22,RRIRARPPRLPRPRPRPACKPRP,0.558
23,RRIRRRPPRLPRPRPRPQDDPRP,-0.0295
24,RRIRQRPPRLPRPRPRPKREPRP,0.119
25,RRIRQRPPRLPRPRPRPPGRPRP,0.853

row,Sequence,shrunken log2 fold change
1,RRIRFRPPRLPRPRPRPSPFPRP,0.0724
2,RRIRGRPPRLPRPRPRPCRIPRP,-0.0785
3,RRIRGRPPRLPRPRPRPPHCPRP,0.902
4,RRIRNRPPRLPRPRPRPNDMPRP,-0.457
5,RRIRKRPPRLPRPRPRPWKQPRP,0.0185
6,RRIRHRPPRLPRPRPRPNNQPRP,-0.465
7,RRIRCRPPRLPRPRPRPSDKPRP,-0.207
8,RRIRPRPPRLPRPRPRPISPPRP,-0.115
9,RRIRIRPPRLPRPRPRPETAPRP,0.0478
10,RRIRFRPPRLPRPRPRPQYQPRP,-0.118
11,RRIRCRPPRLPRPRPRPFSDPRP,-0.165
12,RRIRGRPPRLPRPRPRPSWCPRP,0.013
13,RRIRIRPPRLPRPRPRPCQKPRP,-0.0157
14,RRIRPRPPRLPRPRPRPKESPRP,0.13
15,RRIRARPPRLPRPRPRPLLQPRP,0.171
16,RRIRDRPPRLPRPRPRPAYEPRP,-0.0214
17,RRIRKRPPRLPRPRPRPYFIPRP,-0.515
18,RRIRDRPPRLPRPRPRPDNQPRP,-0.105
19,RRIRVRPPRLPRPRPRPIIDPRP,0.0493
20,RRIRKRPPRLPRPRPRPEAYPRP,0.0226
21,RRIRNRPPRLPRPRPRPETLPRP,0.373
22,RRIRDRPPRLPRPRPRPNWIPRP,-0.389
23,RRIRIRPPRLPRPRPRPNTPPRP,-0.487
24,RRIRHRPPRLPRPRPRPSCWPRP,-0.0721
25,RRIRTRPPRLPRPRPRPQAQPRP,0.017

row,Sequence,shrunken log2 fold change
1,RRIRCRPPRLPRPRPRPMLWPRP,-0.00796
2,RRIRVRPPRLPRPRPRPAKAPRP,0.0673
3,RRIRKRPPRLPRPRPRPTQEPRP,0.294
4,RRIRVRPPRLPRPRPRPMFQPRP,-0.267
5,RRIRWRPPRLPRPRPRPVPKPRP,0.524
6,RRIRTRPPRLPRPRPRPDDKPRP,-0.294
7,RRIRDRPPRLPRPRPRPNFPPRP,-0.0273
8,RRIRTRPPRLPRPRPRPWFVPRP,-0.243
9,RRIRFRPPRLPRPRPRPIKLPRP,-0.825
10,RRIRYRPPRLPRPRPRPQYTPRP,-1.34
11,RRIRQRPPRLPRPRPRPISYPRP,0.0146
12,RRIRNRPPRLPRPRPRPREVPRP,0.00782
13,RRIRCRPPRLPRPRPRPWIEPRP,-0.123
14,RRIRMRPPRLPRPRPRPCQPPRP,-0.0351
15,RRIRGRPPRLPRPRPRPWVRPRP,0.151
16,RRIRLRPPRLPRPRPRPQPSPRP,0.169
17,RRIRMRPPRLPRPRPRPSHFPRP,-0.274
18,RRIRIRPPRLPRPRPRPHYHPRP,-1.47
19,RRIRWRPPRLPRPRPRPYCDPRP,-0.218
20,RRIRDRPPRLPRPRPRPNENPRP,-0.177
21,RRIRVRPPRLPRPRPRPMTGPRP,-0.0967
22,RRIRTRPPRLPRPRPRPPEYPRP,0.0238
23,RRIRQRPPRLPRPRPRPACLPRP,0.14
24,RRIRDRPPRLPRPRPRPKWNPRP,-0.159
25,RRIRERPPRLPRPRPRPTDRPRP,0.0616

row,Sequence,shrunken log2 fold change
1,RRIRDRPPRLPRPRPRPGACPRP,0.23
2,RRIRKRPPRLPRPRPRPCQQPRP,-0.0287
3,RRIRYRPPRLPRPRPRPMWPPRP,0.158
4,RRIRARPPRLPRPRPRPKSAPRP,0.709
5,RRIRWRPPRLPRPRPRPSFMPRP,-0.304
6,RRIRARPPRLPRPRPRPGSGPRP,0.576
7,RRIRPRPPRLPRPRPRPILTPRP,-0.211
8,RRIRYRPPRLPRPRPRPGTIPRP,0.137
9,RRIRHRPPRLPRPRPRPEGRPRP,-0.114
10,RRIRPRPPRLPRPRPRPWESPRP,0.0303
11,RRIRTRPPRLPRPRPRPNWMPRP,0.286
12,RRIRPRPPRLPRPRPRPATGPRP,0.0771
13,RRIRCRPPRLPRPRPRPMSNPRP,-0.64
14,RRIRVRPPRLPRPRPRPRVSPRP,0.205
15,RRIRPRPPRLPRPRPRPPLTPRP,0.274
16,RRIRNRPPRLPRPRPRPSYCPRP,-0.267
17,RRIRSRPPRLPRPRPRPLPIPRP,0.0503
18,RRIRFRPPRLPRPRPRPNKNPRP,-0.384
19,RRIRRRPPRLPRPRPRPYTPPRP,-0.225
20,RRIRLRPPRLPRPRPRPSMAPRP,-0.0685
21,RRIRLRPPRLPRPRPRPKVNPRP,0.0232
22,RRIRDRPPRLPRPRPRPPEPPRP,0.84
23,RRIRTRPPRLPRPRPRPTQGPRP,0.358
24,RRIRYRPPRLPRPRPRPSPPPRP,-0.469
25,RRIRSRPPRLPRPRPRPMHMPRP,-0.13
